Source: the supplement of paper PMC9876800

Test system: peptide library, one residue held at a place counted from the S/T acceptor
Assay: relative phosphorylation of the sub-library (ratio to the mean residue at this position); higher = residue favoured
Details: human
Summary of the method: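 Purified recombinant kinases were reacted in 384-well plates with biotinylated degenerate peptide sub-libraries, each having one residue fixed at one position around a central Ser/Thr. The reaction mix contained 50 μM peptide plus 50 μM ATP spiked with γ-32P-ATP and ran for 90 min under kinase-specific conditions. Relative sub-library phosphorylation, taken from densitometry of phosphorimaged streptavidin membrane spots, is a ratio to the mean residue at that position.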

Chain of MAPKAPK2, construct: Full length (P49137 whole entry, looked up): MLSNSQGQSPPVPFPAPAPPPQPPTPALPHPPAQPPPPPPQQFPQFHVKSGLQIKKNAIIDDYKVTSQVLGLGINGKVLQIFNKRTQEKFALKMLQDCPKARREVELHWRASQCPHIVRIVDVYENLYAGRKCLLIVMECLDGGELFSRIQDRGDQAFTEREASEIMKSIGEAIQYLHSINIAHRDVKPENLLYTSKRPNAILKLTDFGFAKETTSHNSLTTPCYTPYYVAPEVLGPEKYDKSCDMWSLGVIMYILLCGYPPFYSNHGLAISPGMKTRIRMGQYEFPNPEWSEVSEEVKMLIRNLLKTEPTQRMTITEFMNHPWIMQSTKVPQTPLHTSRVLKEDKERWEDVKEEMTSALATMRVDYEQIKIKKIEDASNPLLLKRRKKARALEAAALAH
Chain of MARK1, construct: Full length (Q9P0L2 whole entry, looked up): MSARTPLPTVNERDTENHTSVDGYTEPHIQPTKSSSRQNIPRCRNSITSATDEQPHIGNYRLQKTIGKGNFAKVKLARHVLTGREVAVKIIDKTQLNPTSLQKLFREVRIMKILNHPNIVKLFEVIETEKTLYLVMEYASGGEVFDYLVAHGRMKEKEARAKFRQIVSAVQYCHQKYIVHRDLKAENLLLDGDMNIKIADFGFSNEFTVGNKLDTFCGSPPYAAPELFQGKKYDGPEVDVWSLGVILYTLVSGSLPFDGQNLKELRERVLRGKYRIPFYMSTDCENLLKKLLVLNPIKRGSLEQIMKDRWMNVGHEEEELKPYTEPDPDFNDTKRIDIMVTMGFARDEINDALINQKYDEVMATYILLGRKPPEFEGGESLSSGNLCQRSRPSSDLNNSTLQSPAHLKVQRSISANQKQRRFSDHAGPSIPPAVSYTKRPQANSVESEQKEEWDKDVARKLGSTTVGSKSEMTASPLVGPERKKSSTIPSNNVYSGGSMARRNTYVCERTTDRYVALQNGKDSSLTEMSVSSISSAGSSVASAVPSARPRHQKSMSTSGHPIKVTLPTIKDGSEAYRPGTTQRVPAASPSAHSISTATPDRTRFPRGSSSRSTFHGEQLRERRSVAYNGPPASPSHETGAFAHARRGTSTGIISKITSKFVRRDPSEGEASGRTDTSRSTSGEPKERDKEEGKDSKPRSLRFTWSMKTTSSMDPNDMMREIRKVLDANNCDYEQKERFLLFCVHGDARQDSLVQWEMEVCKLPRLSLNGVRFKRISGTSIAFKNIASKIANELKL
Chain of SBK1, construct: Full length (Q52WX2 whole entry, looked up): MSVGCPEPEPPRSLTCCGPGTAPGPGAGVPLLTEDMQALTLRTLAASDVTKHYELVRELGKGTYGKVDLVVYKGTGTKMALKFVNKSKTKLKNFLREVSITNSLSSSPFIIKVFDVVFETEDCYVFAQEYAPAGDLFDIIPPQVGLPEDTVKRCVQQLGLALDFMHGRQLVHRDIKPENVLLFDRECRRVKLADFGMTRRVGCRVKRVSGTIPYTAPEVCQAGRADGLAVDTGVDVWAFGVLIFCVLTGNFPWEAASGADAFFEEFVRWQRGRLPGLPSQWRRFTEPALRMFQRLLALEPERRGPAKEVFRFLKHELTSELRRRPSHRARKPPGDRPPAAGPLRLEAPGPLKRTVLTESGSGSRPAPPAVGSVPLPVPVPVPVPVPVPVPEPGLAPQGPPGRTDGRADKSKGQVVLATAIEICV
Chain of PBK, construct: Full length (Q96KB5 whole entry, looked up): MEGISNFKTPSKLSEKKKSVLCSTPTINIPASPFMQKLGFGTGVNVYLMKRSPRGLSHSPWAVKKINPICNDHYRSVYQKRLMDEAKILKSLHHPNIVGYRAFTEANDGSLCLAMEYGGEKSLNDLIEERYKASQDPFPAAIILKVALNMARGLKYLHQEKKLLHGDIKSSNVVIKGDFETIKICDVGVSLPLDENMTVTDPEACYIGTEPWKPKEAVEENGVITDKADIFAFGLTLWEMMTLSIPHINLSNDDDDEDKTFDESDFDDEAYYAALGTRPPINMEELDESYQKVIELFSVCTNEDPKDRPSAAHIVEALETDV

PBK, construct: Full length (from UniProt Q96KB5)
relative phosphorylation
Details | at +1 | at +2 | at +3 | at +4 | at -1 | at -2 | at -3 | at -4 | at -5
A fixed | 1.09 | 1.14 | 1.03 | 1.16 | 1.08 | 0.848 | 1 | 1.04 | 1.29
D fixed | 0.572 | 0.524 | 0.634 | 0.644 | 0.384 | 0.427 | 0.364 | 0.545 | 0.576
E fixed | 0.364 | 0.523 | 0.604 | 0.608 | 0.397 | 0.382 | 0.37 | 0.534 | 0.491
F fixed | 0.394 | 0.849 | 0.728 | 0.848 | 0.814 | 1.47 | 1.57 | 1.07 | 0.756
G fixed | 7.99 | 1.17 | 1.69 | 1.23 | 1.25 | 0.76 | 0.673 | 1.11 | 1
H fixed | 0.527 | 1.11 | 1.2 | 0.777 | 1.48 | 1.06 | 0.965 | 1.16 | 1.41
I fixed | 0.386 | 0.928 | 0.641 | 0.976 | 0.394 | 1.07 | 0.587 | 0.563 | 0.733
K fixed | 0.475 | 0.775 | 1.25 | 1.2 | 1.37 | 1.7 | 1.49 | 1.23 | 1.38
L fixed | 0.52 | 1.04 | 0.907 | 1.05 | 0.719 | 1.07 | 0.691 | 0.669 | 0.723
M fixed | 0.93 | 1.29 | 0.717 | 0.98 | 1.06 | 1.09 | 0.845 | 0.826 | 0.833
N fixed | 0.658 | 0.913 | 1.05 | 0.855 | 1.09 | 0.678 | 0.625 | 0.991 | 0.981
P fixed | 0.592 | 1.38 | 1.69 | 1.56 | 1.06 | 0.878 | 0.872 | 1.16 | 0.914
Q fixed | 0.53 | 0.802 | 0.954 | 0.845 | 1.55 | 0.685 | 0.707 | 0.856 | 0.77
R fixed | 0.535 | 0.829 | 1.24 | 1.05 | 1.81 | 1.23 | 1.98 | 1.56 | 1.99
V fixed | 0.476 | 1.37 | 0.956 | 0.983 | 0.517 | 0.932 | 0.709 | 0.642 | 0.777
W fixed | 0.552 | 1.45 | 0.816 | 1.17 | 0.76 | 1.57 | 1.89 | 2.04 | 1.55
Y fixed | 0.406 | 0.891 | 0.9 | 1.07 | 1.27 | 1.14 | 1.66 | 1.01 | 0.812
pThr fixed | 0.348 | 0.618 | 0.721 | 0.507 | 0.317 | 0.586 | 0.638 | 0.803 | 0.703
pTyr fixed | 0.287 | 0.497 | 0.574 | 0.529 | 0.537 | 0.508 | 0.554 | 0.703 | 0.576

SBK1, construct: Full length (from UniProt Q52WX2)
relative phosphorylation
Details | at +1 | at +2 | at +3 | at +4 | at -1 | at -2 | at -3 | at -4 | at -5
A fixed | 0.96 | 0.91 | 0.834 | 0.989 | 0.983 | 1.24 | 0.407 | 1.08 | 0.746
D fixed | 0.948 | 1.5 | 1.36 | 1.18 | 1.06 | 0.195 | 0.0944 | 0.269 | 0.195
E fixed | 0.863 | 1.29 | 1.41 | 1.01 | 0.51 | 0.239 | 0.113 | 0.58 | 0.186
F fixed | 0.737 | 1 | 0.925 | 0.851 | 0.808 | 0.782 | 0.161 | 0.922 | 2.33
G fixed | 1.32 | 1.01 | 1.18 | 1.25 | 1.22 | 0.42 | 0.151 | 0.634 | 0.383
H fixed | 0.958 | 1.36 | 1.11 | 1.14 | 1.38 | 1.02 | 0.37 | 1.29 | 0.5
I fixed | 0.817 | 0.677 | 0.747 | 0.787 | 0.251 | 0.861 | 0.133 | 0.753 | 1.97
K fixed | 0.485 | 0.494 | 0.622 | 0.828 | 0.982 | 1.71 | 1.76 | 1.99 | 0.506
L fixed | 0.93 | 0.881 | 0.812 | 0.905 | 0.862 | 0.957 | 0.166 | 0.656 | 1.83
M fixed | 0.852 | 0.849 | 0.793 | 0.983 | 1.15 | 1.75 | 0.184 | 0.998 | 1.09
N fixed | 1.35 | 1.18 | 1.07 | 1.18 | 1.94 | 0.609 | 0.187 | 0.49 | 0.255
P fixed | 2.53 | 1.08 | 1.64 | 1.69 | 1.74 | 0.27 | 0.188 | 0.275 | 1.15
Q fixed | 1.12 | 1.17 | 1.04 | 0.994 | 1.07 | 1.21 | 0.581 | 1.18 | 0.597
R fixed | 0.531 | 0.682 | 0.619 | 0.709 | 0.828 | 2.71 | 12 | 2.72 | 1.07
V fixed | 0.953 | 0.693 | 0.77 | 0.699 | 0.401 | 1.27 | 0.153 | 0.95 | 1.22
W fixed | 0.834 | 1.05 | 1.09 | 0.958 | 0.658 | 0.792 | 0.198 | 0.926 | 2.21
Y fixed | 0.816 | 1.16 | 0.979 | 0.858 | 1.16 | 0.961 | 0.178 | 1.28 | 0.746
pThr fixed | 0.598 | 1.1 | 1.02 | 1.4 | 0.203 | 0.181 | 0.105 | 0.261 | 0.193
pTyr fixed | 0.717 | 1.35 | 1.36 | 1.6 | 0.745 | 0.215 | 0.0961 | 0.24 | 0.374

MAPKAPK2, construct: Full length (from UniProt P49137)
relative phosphorylation
Details | at +1 | at +2 | at +3 | at +4 | at -1 | at -2 | at -3 | at -4 | at -5
A fixed | 0.699 | 0.907 | 0.885 | 0.974 | 0.808 | 1.19 | 0.604 | 1.22 | 0.754
D fixed | 0.716 | 1.92 | 2.48 | 1.79 | 1.12 | 0.349 | 0.262 | 0.669 | 0.268
E fixed | 1.27 | 1.5 | 2.42 | 1.7 | 0.802 | 0.749 | 0.302 | 1.17 | 0.22
F fixed | 0.729 | 0.59 | 0.436 | 0.561 | 0.69 | 0.568 | 0.212 | 0.659 | 1.39
G fixed | 0.752 | 1.47 | 1.58 | 1.39 | 0.733 | 1.14 | 0.445 | 0.999 | 0.366
H fixed | 1.52 | 1.18 | 1.1 | 1.01 | 1.38 | 0.778 | 1.08 | 1.07 | 0.67
I fixed | 0.928 | 0.688 | 0.313 | 0.575 | 0.664 | 0.438 | 0.111 | 0.696 | 1.28
K fixed | 0.861 | 0.655 | 0.784 | 0.987 | 1.2 | 0.693 | 1.91 | 1.75 | 0.51
L fixed | 0.728 | 0.594 | 0.432 | 0.579 | 0.949 | 1.04 | 0.171 | 0.954 | 1.65
M fixed | 1.27 | 0.616 | 0.43 | 0.598 | 0.994 | 1.67 | 0.275 | 1.23 | 1.14
N fixed | 1.43 | 1.4 | 1.07 | 1.23 | 1.49 | 0.846 | 0.645 | 0.843 | 0.345
P fixed | 0.206 | 1.48 | 1.75 | 1.84 | 1.69 | 0.655 | 0.889 | 0.805 | 1.42
Q fixed | 1.47 | 1.04 | 1.17 | 1.07 | 1.31 | 3.73 | 1.03 | 1.33 | 0.941
R fixed | 1.36 | 0.726 | 0.631 | 0.755 | 0.778 | 1.37 | 7.97 | 1.61 | 1.59
V fixed | 1.14 | 0.885 | 0.501 | 0.739 | 0.87 | 0.615 | 0.154 | 0.725 | 1.1
W fixed | 0.801 | 0.642 | 0.5 | 0.646 | 0.582 | 0.586 | 0.636 | 0.661 | 2.38
Y fixed | 1.12 | 0.708 | 0.521 | 0.564 | 0.935 | 0.577 | 0.296 | 0.599 | 0.983
pThr fixed | 1.61 | 1.04 | 1.11 | 1.83 | 0.519 | 0.372 | 0.258 | 0.504 | 0.365
pTyr fixed | 5.15 | 2.06 | 1.63 | 1.61 | 1.04 | 0.397 | 0.218 | 0.557 | 0.646

MARK1, construct: Full length (from UniProt Q9P0L2)
relative phosphorylation
Details | at +1 | at +2 | at +3 | at +4 | at -1 | at -2 | at -3 | at -4 | at -5
A fixed | 0.647 | 0.684 | 0.599 | 0.352 | 1.02 | 1.84 | 0.723 | 0.974 | 0.972
D fixed | 0.508 | 0.722 | 3.18 | 0.56 | 0.625 | 0.335 | 0.358 | 0.782 | 0.715
E fixed | 0.778 | 1.09 | 0.947 | 0.373 | 0.616 | 0.261 | 0.408 | 0.696 | 0.695
F fixed | 0.81 | 0.764 | 0.898 | 0.713 | 0.635 | 1.48 | 0.885 | 1.05 | 1.18
G fixed | 0.497 | 0.392 | 0.379 | 0.421 | 2.38 | 0.96 | 0.556 | 1.07 | 0.906
H fixed | 0.787 | 1.08 | 1.44 | 0.589 | 0.783 | 1.35 | 1.36 | 1.25 | 0.858
I fixed | 1.2 | 0.885 | 0.565 | 2.73 | 0.557 | 0.503 | 0.555 | 0.654 | 0.974
K fixed | 0.837 | 0.57 | 0.587 | 0.483 | 1.72 | 0.994 | 2.18 | 1.38 | 1.26
L fixed | 1.42 | 1.13 | 0.877 | 4.86 | 0.751 | 0.491 | 0.642 | 0.747 | 1.51
M fixed | 2.28 | 1.12 | 0.774 | 1.4 | 0.963 | 0.76 | 0.883 | 0.967 | 1.27
N fixed | 0.949 | 0.968 | 2.63 | 0.679 | 1.1 | 0.576 | 0.571 | 0.865 | 0.739
P fixed | 0.28 | 0.59 | 0.171 | 0.382 | 1.13 | 0.428 | 0.716 | 0.856 | 0.775
Q fixed | 1.76 | 1.04 | 0.911 | 0.615 | 1.16 | 0.569 | 0.7 | 0.805 | 0.862
R fixed | 1.14 | 0.69 | 0.476 | 0.384 | 1.41 | 1.08 | 3.66 | 1.75 | 1.48
V fixed | 1.36 | 0.879 | 0.487 | 1.28 | 0.75 | 0.676 | 0.525 | 0.798 | 0.903
W fixed | 0.847 | 3.44 | 1.03 | 0.626 | 0.636 | 3.1 | 1.39 | 1.26 | 1.02
Y fixed | 0.903 | 0.958 | 1.05 | 0.555 | 0.766 | 1.6 | 0.884 | 1.09 | 0.877
pThr fixed | 1.58 | 1.08 | 0.457 | 0.348 | 0.378 | 0.43 | 0.445 | 0.692 | 0.614
pTyr fixed | 0.712 | 0.641 | 0.828 | 0.368 | 0.881 | 0.508 | 0.543 | 0.659 | 0.758
